Measurements published in paper PMC11969024 (2025).

B1: peptide HD2 (from tick evasin EVA4) / CXCL14 (biotinylated, synthetic) (parent complex)
chain 1: EEDDYTAYAPLTCYFT
chain 2: SKCKCSRKGPKIRYSDVKKLEMKPKYPHCEEKMVIITTKSVSRYRGQEHCLHPKLQSTKRFIKWYNAWNEKRRVYEE

Variants of: B1

In order of falling enrichment:
1. chain 1 EEDDYTAYNPLTCYFT  4.16 log2 (difference from the parental peptide)
2. chain 1 EEDDYTAYQPLTCYFT  3.77 log2 (difference from the parental peptide)
3. chain 1 EEDDYTAYAPLTCYFH  3.56 log2 (difference from the parental peptide)
4. chain 1 EEDDYTAYAPLICYFT  3.47 log2 (difference from the parental peptide)
5. chain 1 EEDDYYAYAPLTCYFT  3.46 log2 (difference from the parental peptide)
6. chain 1 EEDDYDAYAPLTCYFT  3.46 log2 (difference from the parental peptide)
7. chain 1 EEDDYTAYAPLTCYYT  3.35 log2 (difference from the parental peptide)
8. chain 1 EEDDYTAYAELTCYFT  3.27 log2 (difference from the parental peptide)
9. chain 1 EEDDYTDYAPLTCYFT  3.18 log2 (difference from the parental peptide)
10. chain 1 EEDDYTNYAPLTCYFT  2.93 log2 (difference from the parental peptide)
11. chain 1 EEDDYEAYAPLTCYFT  2.79 log2 (difference from the parental peptide)
12. chain 1 EEDDYTAYAPLTCHFT  2.79 log2 (difference from the parental peptide)
13. chain 1 EEDDYTAYAPLTCYFG  2.47 log2 (difference from the parental peptide)
14. chain 1 EEDDYTAYAMLTCYFT  2.33 log2 (difference from the parental peptide)
15. chain 1 EEDDYTAYAPLTCYFW  2.14 log2 (difference from the parental peptide)
16. chain 1 EEDDYTAYTPLTCYFT  2.11 log2 (difference from the parental peptide)
17. chain 1 EEDDYTAYAALTCYFT  2.1 log2 (difference from the parental peptide)
18. chain 1 EEDDYTAYWPLTCYFT  1.99 log2 (difference from the parental peptide)
19. chain 1 EEDDYTGYAPLTCYFT  1.97 log2 (difference from the parental peptide)
20. chain 1 EEDDYTAYAPLTCYQT  1.93 log2 (difference from the parental peptide)
21. chain 1 EEDDYPAYAPLTCYFT  1.85 log2 (difference from the parental peptide)
22. chain 1 EEGDYTAYAPLTCYFT  1.82 log2 (difference from the parental peptide)
23. chain 1 EEDPYTAYAPLTCYFT  1.82 log2 (difference from the parental peptide)
24. chain 1 EEDDYTAMAPLTCYFT  1.74 log2 (difference from the parental peptide)
25. chain 1 EEDDYMAYAPLTCYFT  1.47 log2 (difference from the parental peptide)
26. chain 1 EEDDYTHYAPLTCYFT  1.29 log2 (difference from the parental peptide)
27. chain 1 EEDDYTAYAPLTCYFL  1.24 log2 (difference from the parental peptide)
28. chain 1 EEDDYTRYAPLTCYFT  1.24 log2 (difference from the parental peptide)
29. chain 1 EEDDYTAYAPLTCYFC  1.19 log2 (difference from the parental peptide)
30. chain 1 EEDDYTAYAPLTCYCT  1.14 log2 (difference from the parental peptide)
31. chain 1 EEDDYTSYAPLTCYFT  1 log2 (difference from the parental peptide)
32. chain 1 EEDDYTAYAPLTCYFI  0.982 log2 (difference from the parental peptide)
33. chain 1 YEDDYTAYAPLTCYFT  0.958 log2 (difference from the parental peptide)
34. chain 1 EEYDYTAYAPLTCYFT  0.926 log2 (difference from the parental peptide)
35. chain 1 EEDDYTAYAHLTCYFT  0.862 log2 (difference from the parental peptide)
36. chain 1 EEDDYQAYAPLTCYFT  0.84 log2 (difference from the parental peptide)
37. chain 1 EEDDYTIYAPLTCYFT  0.79 log2 (difference from the parental peptide)
38. chain 1 EEDDYTAWAPLTCYFT  0.649 log2 (difference from the parental peptide)
39. chain 1 EEDIYTAYAPLTCYFT  0.635 log2 (difference from the parental peptide)
40. chain 1 EEDDYTAYAPITCYFT  0.571 log2 (difference from the parental peptide)
41. chain 1 EEDDYTAYAPCTCYFT  0.549 log2 (difference from the parental peptide)
42. chain 1 EEDDYTAYAPDTCYFT  0.52 log2 (difference from the parental peptide)
43. chain 1 EEDDYFAYAPLTCYFT  0.389 log2 (difference from the parental peptide)
44. chain 1 EDDDYTAYAPLTCYFT  0.377 log2 (difference from the parental peptide)
45. chain 1 EEDDYTALAPLTCYFT  0.358 log2 (difference from the parental peptide)
46. chain 1 EEDDYTAYAVLTCYFT  0.331 log2 (difference from the parental peptide)
47. chain 1 EEDDYTAYAPLTCYMT  0.3 log2 (difference from the parental peptide)
48. chain 1 TEDDYTAYAPLTCYFT  0.267 log2 (difference from the parental peptide)
49. chain 1 ESDDYTAYAPLTCYFT  0.196 log2 (difference from the parental peptide)
50. chain 1 EEDDYNAYAPLTCYFT  0.149 log2 (difference from the parental peptide)
51. chain 1 EEDDYTAYALLTCYFT  0.0771 log2 (difference from the parental peptide)
52. chain 1 EVDDYTAYAPLTCYFT  -0.0348 log2 (difference from the parental peptide)
53. chain 1 EEDDYTAYAPVTCYFT  -0.136 log2 (difference from the parental peptide)
54. chain 1 EEDDYSAYAPLTCYFT  -0.144 log2 (difference from the parental peptide)
55. chain 1 EEDDYTAYAPLTCEFT  -0.269 log2 (difference from the parental peptide)
56. chain 1 EEDDYTAYAPLTCAFT  -0.328 log2 (difference from the parental peptide)
57. chain 1 EEDDYTAYAPNTCYFT  -0.349 log2 (difference from the parental peptide)
58. chain 1 EEDFYTAYAPLTCYFT  -0.493 log2 (difference from the parental peptide)
59. chain 1 EEDDYTAYAPLHCYFT  -1.2 log2 (difference from the parental peptide)
60. chain 1 EEDDWTAYAPLTCYFT  -1.34 log2 (difference from the parental peptide)
61. chain 1 EEDDYTAYADLTCYFT  -1.54 log2 (difference from the parental peptide)
62. chain 1 EEDDYTAYSPLTCYFT  -1.59 log2 (difference from the parental peptide)
63. chain 1 EEDDYTAYVPLTCYFT  -2.17 log2 (difference from the parental peptide)
64. chain 1 EEDDYTAYAFLTCYFT  -2.31 log2 (difference from the parental peptide)
65. chain 1 EEDDLTAYAPLTCYFT  -2.83 log2 (difference from the parental peptide)
66. chain 1 QEDDYTAYAPLTCYFT  -2.86 log2 (difference from the parental peptide)
67. chain 1 EEFDYTAYAPLTCYFT  -3.03 log2 (difference from the parental peptide)
68. chain 1 EEDDYTQYAPLTCYFT  -3.16 log2 (difference from the parental peptide)
69. chain 1 EEDDYTMYAPLTCYFT  -3.2 log2 (difference from the parental peptide)
70. chain 1 EEDDYTAYAPLTSYFT  -3.41 log2 (difference from the parental peptide)
71. chain 1 EEDDYTAYAPLTCVFT  -3.62 log2 (difference from the parental peptide)
72. chain 1 EEDDYTAYAPLTCYFN  -3.97 log2 (difference from the parental peptide)
73. chain 1 EEDDYTAYAPLTCYNT  -3.99 log2 (difference from the parental peptide)
74. chain 1 EEDDYTAYEPLTCYFT  -4.09 log2 (difference from the parental peptide)
75. chain 1 EEDEYTAYAPLTCYFT  -4.2 log2 (difference from the parental peptide)
76. chain 1 EEDDYTAYAPLMCYFT  -4.31 log2 (difference from the parental peptide)
77. chain 1 EEDDYTANAPLTCYFT  -4.8 log2 (difference from the parental peptide)
78. chain 1 EEDDYTAYAPLTNYFT  -4.88 log2 (difference from the parental peptide)
79. chain 1 EEDDYTAYKPLTCYFT  -4.89 log2 (difference from the parental peptide)
80. chain 1 EEDDYTAYAPRTCYFT  -4.9 log2 (difference from the parental peptide)
81. chain 1 EEDDYTAYAPLTCYLT  -4.99 log2 (difference from the parental peptide)
82. chain 1 EEDDYTAYAPLTCCFT  -4.99 log2 (difference from the parental peptide)
83. chain 1 EEDDYTAYAPLTCYFQ  -5.09 log2 (difference from the parental peptide)
84. chain 1 EEDDYTAYAPLECYFT  -5.22 log2 (difference from the parental peptide)
85. chain 1 EEDDYTAYAPLTCYAT  -5.37 log2 (difference from the parental peptide)
86. chain 1 EEDDYKAYAPLTCYFT  -5.43 log2 (difference from the parental peptide)
87. chain 1 EEDDYTTYAPLTCYFT  -5.45 log2 (difference from the parental peptide)
88. chain 1 EEDDYTAYDPLTCYFT  -5.49 log2 (difference from the parental peptide)
89. chain 1 EEDDYTAYAPLTDYFT  -5.83 log2 (difference from the parental peptide)
90. chain 1 EEDDYTAYAPLTCYFS  -5.85 log2 (difference from the parental peptide)
91. chain 1 EEDDFTAYAPLTCYFT  -5.86 log2 (difference from the parental peptide)
92. chain 1 EETDYTAYAPLTCYFT  -5.87 log2 (difference from the parental peptide)
93. chain 1 EEDDYTAYAPLTTYFT  -5.9 log2 (difference from the parental peptide)
94. chain 1 EEDDYTAYAPLNCYFT  -6.02 log2 (difference from the parental peptide)
95. chain 1 SEDDYTAYAPLTCYFT  -6.03 log2 (difference from the parental peptide)
96. chain 1 EEDDYTAIAPLTCYFT  -6.06 log2 (difference from the parental peptide)
97. chain 1 EMDDYTAYAPLTCYFT  -6.07 log2 (difference from the parental peptide)
98. chain 1 EEDDYTAPAPLTCYFT  -6.13 log2 (difference from the parental peptide)
99. chain 1 EEDDYTAYAPLTCYST  -6.23 log2 (difference from the parental peptide)
100. chain 1 EEDDYTAYAPLTCYWT  -6.44 log2 (difference from the parental peptide)
101. chain 1 EEDDYTAYHPLTCYFT  -6.47 log2 (difference from the parental peptide)
102. chain 1 EEDDYTAYAPLACYFT  -6.47 log2 (difference from the parental peptide)
103. chain 1 EEDDYTAYAPLTPYFT  -6.86 log2 (difference from the parental peptide)
104. chain 1 EEDMYTAYAPLTCYFT  -6.89 log2 (difference from the parental peptide)
105. chain 1 EEDDYTAYAPLTAYFT  -6.89 log2 (difference from the parental peptide)
106. chain 1 EEDDYTAYAPLDCYFT  -6.91 log2 (difference from the parental peptide)
107. chain 1 EEDDYTAYAPLRCYFT  -7.34 log2 (difference from the parental peptide)
108. chain 1 EEDDYTAYAPLSCYFT  -7.83 log2 (difference from the parental peptide)
109. chain 1 EEDDYTAYAPLTCYGT  -8.03 log2 (difference from the parental peptide)
110. chain 1 EEIDYTAYAPLTCYFT  -8.12 log2 (difference from the parental peptide)
111. chain 1 EEDDYTAYAPLGCYFT  -8.56 log2 (difference from the parental peptide)
112. chain 1 EEDDYTAYAPLTGYFT  -8.69 log2 (difference from the parental peptide)
